The Human Domainome abundance scans (Beltran et al. 2025)
± gives the uncertainty stated by the source.

B1: POU domain, class 4, transcription factor 2, residues 256 to 327; numbered along this chain, Q12837 (parent)
chain: RDLEAFAERFKQRRIKLGVTQADVGSALANLKIPGVGSLSQSTICRFESLTLSHNNMIALKPILQAWLEEAE

Variants of: B1
Experiment: abundance fitness (aPCA) (normalised: wild type 0, dead -1); higher = more abundant; growth selection in yeast, the domain comes from the species named
Details: Homo sapiens

Compared with RDLEAFAPRFKQRRIKLGVTQADVGSALANLKIPGVGSLSQSTICRFESLTLSHNNMIALKPILQAWLEEAE [E8P], RDLEAFAGRFKQRRIKLGVTQADVGSALANLKIPGVGSLSQSTICRFESLTLSHNNMIALKPILQAWLEEAE [E8G] is higher in abundance fitness: -0.862 ± 0.097 for the first, -0.119 ± 0.056 for the second.

RDLEAFAFRFKQRRIKLGVTQADVGSALANLKIPGVGSLSQSTICRFESLTLSHNNMIALKPILQAWLEEAE [E8F] and RDLEAFAVRFKQRRIKLGVTQADVGSALANLKIPGVGSLSQSTICRFESLTLSHNNMIALKPILQAWLEEAE [E8V] are within error of each other in abundance fitness: -0.306 ± 0.16 for the first, -0.121 ± 0.087 for the second.

RDLEAFAYRFKQRRIKLGVTQADVGSALANLKIPGVGSLSQSTICRFESLTLSHNNMIALKPILQAWLEEAE [E8Y] and RDLEAFALRFKQRRIKLGVTQADVGSALANLKIPGVGSLSQSTICRFESLTLSHNNMIALKPILQAWLEEAE [E8L] are within error of each other in abundance fitness: 0.036 ± 0.073 for the first, -0.072 ± 0.064 for the second.

RDLEAFAIRFKQRRIKLGVTQADVGSALANLKIPGVGSLSQSTICRFESLTLSHNNMIALKPILQAWLEEAE [E8I] and RDLEAFANRFKQRRIKLGVTQADVGSALANLKIPGVGSLSQSTICRFESLTLSHNNMIALKPILQAWLEEAE [E8N] are within error of each other in abundance fitness: 0 ± 0.1 for the first, 0.049 ± 0.096 for the second.

RDLEAFAQRFKQRRIKLGVTQADVGSALANLKIPGVGSLSQSTICRFESLTLSHNNMIALKPILQAWLEEAE [E8Q] and RDLEAFADRFKQRRIKLGVTQADVGSALANLKIPGVGSLSQSTICRFESLTLSHNNMIALKPILQAWLEEAE [E8D] are within error of each other in abundance fitness: -0.091 ± 0.079 for the first, -0.172 ± 0.079 for the second.

First: RDLEAFAARFKQRRIKLGVTQADVGSALANLKIPGVGSLSQSTICRFESLTLSHNNMIALKPILQAWLEEAE [E8A]
Second: RDLEAFARRFKQRRIKLGVTQADVGSALANLKIPGVGSLSQSTICRFESLTLSHNNMIALKPILQAWLEEAE [E8R]
The abundance fitness of the first is lower: -0.232 ± 0.071 for the first, 0.031 ± 0.041 for the second.

RDLEAFATRFKQRRIKLGVTQADVGSALANLKIPGVGSLSQSTICRFESLTLSHNNMIALKPILQAWLEEAE [E8T] and RDLEAFAWRFKQRRIKLGVTQADVGSALANLKIPGVGSLSQSTICRFESLTLSHNNMIALKPILQAWLEEAE [E8W] are within error of each other in abundance fitness: -0.222 ± 0.079 for the first, -0.208 ± 0.074 for the second.

RDLEAFAHRFKQRRIKLGVTQADVGSALANLKIPGVGSLSQSTICRFESLTLSHNNMIALKPILQAWLEEAE [E8H] and RDLEAFAMRFKQRRIKLGVTQADVGSALANLKIPGVGSLSQSTICRFESLTLSHNNMIALKPILQAWLEEAE [E8M] are within error of each other in abundance fitness: -0.016 ± 0.085 for the first, -0.137 ± 0.1 for the second.

Compared with RDLEAFACRFKQRRIKLGVTQADVGSALANLKIPGVGSLSQSTICRFESLTLSHNNMIALKPILQAWLEEAE [E8C], RDLEAFAKRFKQRRIKLGVTQADVGSALANLKIPGVGSLSQSTICRFESLTLSHNNMIALKPILQAWLEEAE [E8K] is higher in abundance fitness: -0.313 ± 0.076 for the first, 0.007 ± 0.11 for the second.

Compared with RDLEAFNERFKQRRIKLGVTQADVGSALANLKIPGVGSLSQSTICRFESLTLSHNNMIALKPILQAWLEEAE [A7N], RDLEAFCERFKQRRIKLGVTQADVGSALANLKIPGVGSLSQSTICRFESLTLSHNNMIALKPILQAWLEEAE [A7C] is higher in abundance fitness: -0.907 ± 0.41 for the first, -0.358 ± 0.13 for the second.

RDLEAFHERFKQRRIKLGVTQADVGSALANLKIPGVGSLSQSTICRFESLTLSHNNMIALKPILQAWLEEAE [A7H] and RDLEAFDERFKQRRIKLGVTQADVGSALANLKIPGVGSLSQSTICRFESLTLSHNNMIALKPILQAWLEEAE [A7D] are within error of each other in abundance fitness: -0.772 ± 0.23 for the first, -0.769 ± 0.35 for the second.

Going from RDLEAFVERFKQRRIKLGVTQADVGSALANLKIPGVGSLSQSTICRFESLTLSHNNMIALKPILQAWLEEAE [A7V] to RDLEAFYERFKQRRIKLGVTQADVGSALANLKIPGVGSLSQSTICRFESLTLSHNNMIALKPILQAWLEEAE [A7Y], the abundance fitness falls from 0.08 ± 0.063 to -0.537 ± 0.13.

RDLEAFSERFKQRRIKLGVTQADVGSALANLKIPGVGSLSQSTICRFESLTLSHNNMIALKPILQAWLEEAE [A7S] and RDLEAFEERFKQRRIKLGVTQADVGSALANLKIPGVGSLSQSTICRFESLTLSHNNMIALKPILQAWLEEAE [A7E] are within error of each other in abundance fitness: -0.455 ± 0.066 for the first, -0.443 ± 0.23 for the second.

RDLEAFPERFKQRRIKLGVTQADVGSALANLKIPGVGSLSQSTICRFESLTLSHNNMIALKPILQAWLEEAE [A7P] and RDLEAFQERFKQRRIKLGVTQADVGSALANLKIPGVGSLSQSTICRFESLTLSHNNMIALKPILQAWLEEAE [A7Q] are within error of each other in abundance fitness: -0.768 ± 0.063 for the first, -1.01 ± 0.28 for the second.

Compared with RDLEAFGERFKQRRIKLGVTQADVGSALANLKIPGVGSLSQSTICRFESLTLSHNNMIALKPILQAWLEEAE [A7G], RDLEAFLERFKQRRIKLGVTQADVGSALANLKIPGVGSLSQSTICRFESLTLSHNNMIALKPILQAWLEEAE [A7L] is lower in abundance fitness: -0.639 ± 0.065 for the first, -0.936 ± 0.19 for the second.

RDLEAFWERFKQRRIKLGVTQADVGSALANLKIPGVGSLSQSTICRFESLTLSHNNMIALKPILQAWLEEAE [A7W] and RDLEAFMERFKQRRIKLGVTQADVGSALANLKIPGVGSLSQSTICRFESLTLSHNNMIALKPILQAWLEEAE [A7M] are within error of each other in abundance fitness: -0.709 ± 0.28 for the first, -0.774 ± 0.3 for the second.

Compared with RDLEAFAELFKQRRIKLGVTQADVGSALANLKIPGVGSLSQSTICRFESLTLSHNNMIALKPILQAWLEEAE [R9L], RDLEAFAEEFKQRRIKLGVTQADVGSALANLKIPGVGSLSQSTICRFESLTLSHNNMIALKPILQAWLEEAE [R9E] is higher in abundance fitness: 0.1 ± 0.052 for the first, 0.263 ± 0.1 for the second.

Compared with RDLEAFAEFFKQRRIKLGVTQADVGSALANLKIPGVGSLSQSTICRFESLTLSHNNMIALKPILQAWLEEAE [R9F], RDLEAFAEHFKQRRIKLGVTQADVGSALANLKIPGVGSLSQSTICRFESLTLSHNNMIALKPILQAWLEEAE [R9H] is higher in abundance fitness: -0.335 ± 0.19 for the first, 0.15 ± 0.077 for the second.

For RDLEAFAEDFKQRRIKLGVTQADVGSALANLKIPGVGSLSQSTICRFESLTLSHNNMIALKPILQAWLEEAE [R9D], the abundance fitness was 0.307 ± 0.12.
